The target of the assay is HIV-1 envelope glycoprotein (Env) of the Tier 1B subtype B strain BaL.01, cell surface-expressed (HIV-1 (subtype B, strain BaL.01)).

As for “recombinant two-domain sCD4 (sCD4-183_avi_his.bio) (domain or fragment)”, the sCD4 concentration at the peak of the basal epitope exposure curve of V3 crown mAb 1-79 (antibody staining of Env-expressing cells, flow cytometry, increasing sCD4) turned out to be 5 µM.
